PMC4468220, “Defective Proteasome Delivery of Polyubiquitinated Proteins by Ubiquilin-2 Proteins Containing ALS Mutations” (PLoS ONE, 2015)

How the values were obtained:
Assay in all cases: pull-down; 4 μg GST protein with 2 μg HIS-S5a in 800μL 2% Chaps buffer (20mM Tris pH 8.0, 150mM NaCl, 2mM MgCl2, 10% glycerol, 2.0% Chaps), glutathione agarose beads, 2 hrs at room temperature; washes with PBS, 2% Tween-20, 200 mM KCl; blot for S5a
Conditions in all cases: both partners purified
GST-ubiquilin-2 P497H = target: T1, GST-ubiquilin-2 P497H (human, UniProt Q9UHD9 1-624, P497H)
T1 construct: ubiquilin-2, human, full-length cDNA, 624 aa, ALS-linked mutation P497H; pGST/His T1 vector; also called P497H mutation; source: E. coli BL21(DE3), purified (glutathione-agarose); not shown: GST, N-terminal, kept

GST-ubiquilin-2 P497S = target: T2, GST-ubiquilin-2 P497S (human, UniProt Q9UHD9 1-624, P497S)
T2 construct: ubiquilin-2, human, full-length cDNA, 624 aa, ALS-linked mutation P497S; pGST/His T1 vector; also called P497S mutation; source: E. coli BL21(DE3), purified (glutathione-agarose); not shown: GST, N-terminal, kept

GST-ubiquilin-2 P509S = target: T3, GST-ubiquilin-2 P509S (human, UniProt Q9UHD9 1-624, P509S)
T3 construct: ubiquilin-2, human, full-length cDNA, 624 aa, ALS-linked mutation P509S; pGST/His T1 vector; also called P509S mutation; source: E. coli BL21(DE3), purified (glutathione-agarose); not shown: GST, N-terminal, kept

GST-ubiquilin-2 P506T = target: T4, GST-ubiquilin-2 P506T (human, UniProt Q9UHD9 1-624, P506T)
T4 construct: ubiquilin-2, human, full-length cDNA, 624 aa, ALS-linked mutation P506T; pGST/His T1 vector; also called P506T mutation; source: E. coli BL21(DE3), purified (glutathione-agarose); not shown: GST, N-terminal, kept

GST-ubiquilin-2 P525S = target: T5, GST-ubiquilin-2 P525S (human, UniProt Q9UHD9 1-624, P525S)
T5 construct: ubiquilin-2, human, full-length cDNA, 624 aa, ALS-linked mutation P525S; pGST/His T1 vector; also called P525S mutation; source: E. coli BL21(DE3), purified (glutathione-agarose); not shown: GST, N-terminal, kept

[1] = target: T6, GST-ubiquilin-2 wild type (human, UniProt Q9UHD9 1-624)
T6 construct: ubiquilin-2, human, full-length cDNA, 624 aa; cloned downstream of GST in the pGST/His T1 vector; also called GST-fusion protein encoding WT ubiquilin-2; source: E. coli BL21(DE3), purified (glutathione-agarose); not shown: GST, N-terminal, kept

Measured: binding result

T4 sequence (Q9UHD9 whole entry P506T): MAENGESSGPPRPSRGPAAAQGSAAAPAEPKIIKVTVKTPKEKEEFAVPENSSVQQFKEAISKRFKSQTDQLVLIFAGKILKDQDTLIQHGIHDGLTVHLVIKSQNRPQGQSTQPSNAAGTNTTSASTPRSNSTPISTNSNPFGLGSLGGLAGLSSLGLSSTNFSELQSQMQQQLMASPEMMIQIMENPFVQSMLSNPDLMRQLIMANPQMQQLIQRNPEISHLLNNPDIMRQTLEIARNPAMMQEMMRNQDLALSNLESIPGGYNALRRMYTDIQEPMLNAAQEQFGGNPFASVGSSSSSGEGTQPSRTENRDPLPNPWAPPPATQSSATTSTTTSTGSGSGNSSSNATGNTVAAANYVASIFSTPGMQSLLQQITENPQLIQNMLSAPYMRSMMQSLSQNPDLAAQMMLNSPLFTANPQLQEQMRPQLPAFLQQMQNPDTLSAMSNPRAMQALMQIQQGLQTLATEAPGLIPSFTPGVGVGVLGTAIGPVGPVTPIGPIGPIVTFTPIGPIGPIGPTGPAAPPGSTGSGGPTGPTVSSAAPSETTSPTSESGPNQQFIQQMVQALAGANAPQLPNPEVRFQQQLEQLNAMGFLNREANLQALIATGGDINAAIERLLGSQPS
T5 sequence (Q9UHD9 whole entry P525S): as the sequence (Q9UHD9 whole entry P506T) above, with T506P, P525S counted along it
T1 sequence (Q9UHD9 whole entry P497H): as the sequence (Q9UHD9 whole entry P506T) above, with P497H, T506P counted along it
T2 sequence (Q9UHD9 whole entry P497S): as the sequence (Q9UHD9 whole entry P506T) above, with P497S, T506P counted along it
T6 sequence (Q9UHD9 whole entry, the tested form may be a part): as the sequence (Q9UHD9 whole entry P506T) above, with T506P counted along it
T3 sequence (Q9UHD9 whole entry P509S): as the sequence (Q9UHD9 whole entry P506T) above, with T506P, P509S counted along it

B1: HIS-tagged human S5a protein (natural protein, UniProt P55036 1-377, looked up)
chain: MVLESTMVCVDNSEYMRNGDFLPTRLQAQQDAVNIVCHSKTRSNPENNVGLITLANDCEVLTTLTPDTGRILSKLHTVQPKGKITFCTGIRVAHLALKHRQGKNHKMRIIAFVGSPVEDNEKDLVKLAKRLKKEKVNVDIINFGEEEVNTEKLTAFVNTLNGKDGTGSHLVTVPPGPSLADALISSPILAGEGGAMLGLGASDFEFGVDPSADPELALALRVSMEEQRQRQEEEARRAAAASAAEAGIATTGTEDSDDALLKMTISQQEFGRTGLPDLSSMTEEEQIAYAMQMSLQGAEFGQAESADIDASSAMDTSEPAKEEDDYDVMQDPEFLQSVLENLPGVDPNNEAIRNAMGSLASQATKDGKKDKKEEDKK
notes: S5a subunit of the 19S cap of the proteasome, human, entire open reading frame (377 aa); cloned in pET-21a; also called His-S5a; HIS-S5a; source: E. coli BL21(DE3), purified (Ni-NTA agarose)
binds: all assays above
